Test results reported in patent US20080214457A1 (METROHEALTH SYSTEM, published 2008).
Where no end group is shown, it is not given here.

Target: T1, H558-YFPf (human, UniProt Q14524 538-577)
T1 construct: Expressed in HEK293 cells; also called hNav1.5 protein fragment centered on H558 fused to YFP; not shown: enhanced yellow fluorescent protein from the pEYFP-N3 vector
Assay: three-channel FRET normalized to CFP, fragments coexpressed in HEK293 cells
Text: Three-channel FRET ratios were normalized to CFP and reported as FRETc as previously described by Vanderklish and colleagues, Proc Natl Acad Sci USA. 2000; 97:2253-2258. […] In all experiments, FRET was absent from the cell membrane, which is consistent with the inability of these protein fragments to traffic to the membrane. […] More importantly, hNav1.5 interaction occurs preferentially when 1 protein expresses R558 and the other expresses H558.

B1: R558-CFPf (other, human, UniProt Q14524 538-577, looked up)
chain: GSEADFADDENSTAGESESHRTSLLVPWPLRRTSAQGQPS
modifications: also: fused to CFP, linker and end not given here
notes: Expressed in HEK293 cells; not shown: enhanced cyan fluorescent protein from the pECFP-N3 vector
fold increase in FRETc compared with the homotypic FRETc values: 3 fold
